Laboratory results taken from patent US20210179715A1.
Where a chain is given by its changes, count along the chain named. “And” between values parts separate entries of the source, which are not always exact repeats. Identical values can stand only once. Like-named read-outs stand apart in the source and are kept apart here.

What was measured:
[1] = target: T1, 27mer cyno CD3 polypeptide conjugated to biotin (cynomolgus monkey); assay: BIAcore T200 SPR; biotin 27mer CD3 peptide on SA chip; TDB flowed; 37 C
T1 sequence (peptide, conjugated to biotin (site not stated)): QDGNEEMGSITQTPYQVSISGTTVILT

[2] = target: T1, 27mer cyno CD3 polypeptide conjugated to biotin (cynomolgus monkey); assay: as above; remark: listed apart in the source
[3] = target: cynomolgus LY6G6D-Fc (cynomolgus monkey); assay: BIAcore SPR; LY6G6D-Fc on chip; TDB flowed; 37 C
human LY6G6D-Fc (human) [4] = target: T2, human LY6G6D-Fc (human) (UniProt O95868); assay: BIAcore SPR; LY6G6D-Fc on chip; TDB flowed; 37 C
T2 sequence: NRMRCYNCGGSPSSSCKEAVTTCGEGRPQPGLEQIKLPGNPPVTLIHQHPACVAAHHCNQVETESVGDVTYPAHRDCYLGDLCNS

[5] = target: cynomolgus LY6G6D-Fc (cynomolgus monkey); assay: BIAcore SPR; LY6G6D-Fc on chip; TDB flowed; 37 C; remark: listed apart in the source
human LY6G6D-Fc (human) [6] = target: T2, human LY6G6D-Fc (human); assay: BIAcore SPR; LY6G6D-Fc on chip; TDB flowed; 37 C; remark: listed apart in the source
[7] = target: cynomolgus LY6G6D-Fc (cynomolgus monkey); assay: BIAcore SPR; two-cell TDB

B1: LY6G6D TDB assembled using a one-cell system comprising the anti-LY6G6D 20A12.QNTv12 arm (one-cell) and the anti-CD3 38E4v1 (WT) arm (bispecific antibody, V domains shown)
VH 1: EVQLLESGGGLVQPGGSLRLSCAASGFDFVNNAMIWVREAPGKGLEWVSALSFADNTAYYATWASGRFTISRDSSKTTVYLQMNSLRAEDTAVYYCMRGDLWGPGTLVTVSS
VL 1: DIQMTQSPSTLSASVGDRVTITCQASESITRYLNWYQKKPGKAPKLLIYDASKLPSGVPSRFSGSGSGTEFTLTISSLQPDDFATYYCQSTSFRGRSYQNTFGGGTKVEIK
VH 2: EVQLVQSGAEVKKPGASVKVSCKASGFTFTSYYIHWVRKAPGQGLEWIGWIYPENDNTKYNEKFKDRVTITADTSTSTAYLELSSLRSEDTAVYYCARDGYSRYYFDYWGQGTLVTVSS
VL 2: DIVMTQSPDSLAVSLGERATINCKSSQSLLNSRTRKNYLAWYQEKPGQSPKLLIYWTSTRKSGVPDRFSGSGSGTDFTLTISSLQAEDVAVYYCKQSFILRTFGQGTKVEIK
Q: Which Kd [1] does the source give for B1 here?
A: Its Kd is 15.4 nM and 16.5 nM.

Q: What about the koff [1] of the same binder?
A: Its koff is 0.0399 s⁻¹ and 0.0437 s⁻¹.

Q: And the kon [1]?
A: Its kon is 2.6e+06 M⁻¹ s⁻¹ and 2.65e+06 M⁻¹ s⁻¹.

Q: What about the Kd [2] of the same binder?
A: Its Kd is 15.9 nM.

B2: LY6G6D TDB assembled using a one-cell system comprising the anti-LY6G6D 20A12.QNTv12 arm (one-cell) and the anti-CD3 38E4v1 MD4 arm (bispecific antibody, V domains shown)
VH 1: B1 VH 1
VL 1: B1 VL 1
VH 2: B1 VH 2
VL 2: B1 VL 2 with S49P, T57A
Q: With B2 as the binder, how does the Kd [3] read?
A: The Kd was 2.62 nM.

Q: What about the koff [3] of the same binder?
A: The koff was 0.000574 s⁻¹.

Q: What about the kon [3] of the same binder?
A: The kon was 219000 M⁻¹ s⁻¹.

Q: And the Kd [1]?
A: The Kd was 14 nM and 14.7 nM.

Q: What about the koff [1] of the same binder?
A: The koff was 0.0433 s⁻¹ and 0.0426 s⁻¹.

Q: What about the kon [1] of the same binder?
A: Its kon is 3.09e+06 M⁻¹ s⁻¹ and 2.89e+06 M⁻¹ s⁻¹.

Q: What about the Kd [2] of the same binder?
A: The Kd was 14.4 nM.

B3: LY6G6D TDB comprising the anti-LY6G6D 20A12.QNTv12 arm (two-cell) and the anti-CD3 40G5c arm (bispecific antibody, part only; not given: anti-CD3 arm and constant regions, V domains shown, part only)
VH: B1 VH 1 with E39Q
VL: B1 VL 1 with K38Q
Q: Which results are given for B3?
A: Kd (human LY6G6D-Fc (human) [4]): 5.62 nM; koff (human LY6G6D-Fc (human) [4]): 0.000453 s⁻¹; kon (human LY6G6D-Fc (human) [4]): 80600 M⁻¹ s⁻¹; Kd [5]: 4.91 nM; koff [5]: 0.000413 s⁻¹; kon [5]: 84300 M⁻¹ s⁻¹; koff (human LY6G6D-Fc (human) [6]): 0.000456 s⁻¹

B4: LY6G6D TDB comprising the anti-LY6G6D 20A12.QNTv12 arm (two-cell) and the anti-CD3 38E4v1 arm (bispecific antibody, V domains shown)
VH 1: B1 VH 1 with E39Q
VL 1: B1 VL 1 with K38Q
VH 2: B1 VH 2 with K39Q
VL 2: B1 VL 2 with E44Q
Q: Which Kd [7] does the source give for B4 here?
A: Its Kd is 2.29 nM.

Q: And the Kd [3]?
A: Its Kd is 1.92 nM.

Q: And the koff [3]?
A: The koff was 0.000444 s⁻¹.

Q: What about the kon [3] of the same binder?
A: Its kon is 231000 M⁻¹ s⁻¹.

Q: What about the Kd [5] of the same binder?
A: The Kd was 2.29 nM.

Q: And the koff [5]?
A: Its koff is 0.00038 s⁻¹.

Q: And the kon [5]?
A: Its kon is 166000 M⁻¹ s⁻¹.

Q: What about the Kd [1] of the same binder?
A: The Kd was 13 nM and 16.5 nM.

Q: And the koff [1]?
A: The koff was 0.0337 s⁻¹ and 0.0364 s⁻¹.

Q: What about the kon [1] of the same binder?
A: Its kon is 2.6e+06 M⁻¹ s⁻¹ and 2.21e+06 M⁻¹ s⁻¹.

Q: And the Kd [2]?
A: The Kd was 14.8 nM.

B5: LY6G6D TDB comprising the anti-LY6G6D 1G4 arm and the anti-CD3 38E4.v1 arm (bispecific antibody, V domains shown)
VH 1: EVQLVQSGAEVKKPGASVKVSCKASGYTFTTYVMHWVRQAPGQGLEWMGYINPYNDGTKYNEKFKGRVTMTRDTSISTAYMELSRLRSDDTAVYYCGRRNFDYWGQGTLVTVSS
VL 1: DIVMTQSPDSLAVSLGERATINCKSSQSLLLSGNQENYLAWHQQKPGQPPKTLITWASTRISGVPDRFSGSGSGTDFTLTISSLQAEDVAVYYCQQSYSAPYTFGGGTKVEIK
VH 2: B1 VH 2 with K39Q
VL 2: B1 VL 2 with E44Q
Q: What does the source list for B5?
A: Kd [5]: 13.1 nM; koff [5]: 0.00936 s⁻¹; kon [5]: 714000 M⁻¹ s⁻¹

B6: LY6G6D TDB assembled using a one-cell system comprising the anti-LY6G6D 20A12.QNTv12 arm (one-cell) and the anti-CD3 38E4v1 MD1 arm (bispecific antibody, V domains shown)
VH 1: B1 VH 1
VL 1: B1 VL 1
VH 2: B1 VH 2
VL 2: B1 VL 2 with S49P, T57A, K61E, K95T
Q: What does the source list for B6?
A: Kd [3]: 3.63 nM; koff [3]: 0.000512 s⁻¹; kon [3]: 141000 M⁻¹ s⁻¹; Kd [1]: 26.6 nM and 25.6 nM; koff [1]: 0.0383 s⁻¹ and 0.0376 s⁻¹; kon [1]: 1.44e+06 M⁻¹ s⁻¹ and 1.47e+06 M⁻¹ s⁻¹; Kd [2]: 26.1 nM
